Binding result and percent monomeric data for nine proteins are collected here from patent US7005413 (Amgen, dated 2006).

To fix the notation:
B1: muOPG [22-212] (receptor)
chain: ETLLPKYLHYDPETGHQLLCDKCAPGTYLKQHCTVRRKTLCVPCPDHSYTDSWHTSDECVYCSPVCKELQSVKQECNRTHNRVCECEEGRYLEIEFCLKHRSCPPGSGVVQAGTPERNTVCKKCPDGFFSGETSSKAPCIKHTNCSTFGLLLIQKGNATHDNCCSGNREATQKCGIDVTLCEEAFFRFAVP
notes: also called CT212
B2: muOPG [22-200] (receptor)
chain: ETLLPKYLHYDPETGHQLLCDKCAPGTYLKQHCTVRRKTLCVPCPDHSYTDSWHTSDECVYCSPVCKELQSVKQECNRTHNRVCECEEGRYLEIEFCLKHRSCPPGSGVVQAGTPERNTVCKKCPDGFFSGETSSKAPCIKHTNCSTFGLLLIQKGNATHDNCCSGNREATQKCGIDVT
notes: C-terminal truncation ending at threonine 200, expressed in 293 cells; also called CT 200
B3: muOPG [22-401] C195S (receptor)
chain: ETLLPKYLHYDPETGHQLLCDKCAPGTYLKQHCTVRRKTLCVPCPDHSYTDSWHTSDECVYCSPVCKELQSVKQECNRTHNRVCECEEGRYLEIEFCLKHRSCPPGSGVVQAGTPERNTVCKKCPDGFFSGETSSKAPCIKHTNCSTFGLLLIQKGNATHDNCCSGNREATQKSGIDVTLCEEAFFRFAVPTKIIPNWLSVLVDSLPGTKVNAESVERIKRRHSSQEQTFQLLKLWKHQNRDQEMVKKIIQDIDLCESSVQRHLGHSNLTTEQLLALMESLPGKKISPEEIERTRKTCKSSEQLLKLLSLWRIKNGDQDTLKGLMYALKHLKTSHFPKTVTHSLRKTMRFLHSFTMYRLYQKLFLEMIGNQVQSVKISCL
B4: muOPG [22-401] C319S (receptor)
chain: B3 chain with S174C, C298S
notes: Expressed in 293 cells from pcDNA3.1-muOPG
B5: muOPG [22-401] C202S (receptor)
chain: B3 chain with S174C, C181S
notes: as for B4
B6: muOPG [22-401] C277S (receptor)
chain: B3 chain with S174C, C256S
notes: as for B4
B7: muOPG [22-401] C400S (receptor)
chain: B3 chain with S174C, C379S
notes: as for B4
B8: Rat OPG [22-401] produced in transgenic mice (receptor)
chain: ETFPPKYLHYDPETGRQLLCDKCAPGTYLKQHCTVRRKTLCVPCPDYSYTDSWHTSDECVYCSPVCKELQTVKQECNRTHNRVCECEEGRYLELEFCLKHRSCPPGLGVLQAGTPERNTVCKRCPDGFFSGETSSKAPCRKHTNCSSLGLLLIQKGNATHDNVCSGNREATQNCEIDVTLCEEAFFRFAVPTKIIPNWLSVLVDSLPGTKVNAESVERIKRRHSSQEQTFQLLKLWKHQNRDQEMVKKIIQDIDLCESSVQRHIGHANLTTEQLRILMESLPGKKISPDEIERTRKTCKPSEQLLKLLSLWRIKNGDQDTLKGLMYALKHLKAYHFPKTVTHSLRKTIRFLHSFTMYRLYQKLFLEMIGNQVQSVKISCL
notes: Expressed from the rat cDNA under a hepatocyte control element in transgenic mice; Analysed in liver extracts and serum; also called HE-OPG transgene product
B9: huOPG [22-401] (receptor)
chain: ETFPPKYLHYDEETSHQLLCDKCPPGTYLKQHCTAKWKSVCAPCPDHYYTDSWHTSDECLYCSPVCKELQYVKQECNRTHNRVCECKEGRYLEIEFCLKHRSCPPGFGVVQAGTPERNTVCKRCPDGFFSNETSSKAPCRKHTNCSVFGLLLTQKGNATHDNICSGNSESTQKCGIDVTLCEEAFFRFAVPTKFTPNWLSVLVDNLPGTKVNAESVERIKRQHSSQEQTFQLLKLWKHQNKAQDIVKKIIQDIDLCENSVQRHIGHANLTFEQLRSLMESLPGKKVGAEDIEKTIKACKPSDQILKLLSLWRIKNGDQDTLKGLMHALKHSKTYHFPKTVTQSLKKTIRFLHSFTMYKLYQKLFLEMIGNQVQSVKISCL
notes: Recombinant polypeptide from CHO cells

Where a chain is given by its changes, count along the chain named. In names and notes the source's numbering stands.

One series deals with the molecule itself. Put plainly: homodimerization; non-reducing SDS-PAGE and western blot with anti-OPG antibodies. Here is the method: Each resulting muOPG-CT plasmid containing the appropriate truncation was then transfected into human 293 cells, the mutant OPG-Fc fusion protein purified from conditioned media as described above. The biological activity of each protein was assessed the in vitro osteoclast forming assay described in example 11. The conditioned medias were also analysed by non-reducing SDS-PAGE and western blotting using anti-OPG antibodies.
Take B1: the binding result was “no binding”.
On the same count and under the same terms, then B2, with “no binding”.

A further series deals with the molecule itself. As to the kind of experiment: homodimerization; non-reducing SDS-PAGE and western blot; the number is the monomer share. Here is the method: The biological activity of each protein was assessed the in vitro osteoclast forming assay described in example 11. Conditioned media from each transfectant was analysed by non-reducing SDS-PAGE and western blotting with anti-OPG antibodies.
Turning to B3, the percent monomeric is more than 90%.
In the case of B4, the percent monomeric was more than 90%.
The same measure, in the same setting: then B5, with more than 90%; and B6, with more than 90%.
In turn, B7 had a percent monomeric of more than 90%.

Another series concerns the molecule itself. As to the kind of experiment: self-association; nonreducing SDS gels.
For B8, the binding result was “binds”.
On to B9, for which the binding result is “binds”.
